From US20260125454A1 (SHANGHAI JUNSHI BIOSCIENCES, published 2026)
Read-outs that look alike come from different tables or passages of the source.

Key:
[1] = molecular target: CGRP antigen; experiment: cell-based or functional assay
[2] = molecular target: T1, Biotin-huCGRPaSA (human, not fully specified; biotin (position not given)); experiment: ELISA, transfection supernatant, biotin-CGRP on streptavidin
T1 construct: exact construct ('aSA') not explained; also called Biotin CGRPaSA; full-length (1-37) CGRP
T1 peptide: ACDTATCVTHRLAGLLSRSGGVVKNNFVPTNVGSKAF
Description: Streptavidin was diluted to 0.5 μg/mL by using PBS (Hyclone) and added into a plate at 100 μL/well. The plate was incubated in a thermostat incubator at 37° C. for 90 min and then washed. 2% BSA was added to the plate at 200 μL/well, and the plate was incubated in the thermostat incubator at 37° C. for 90 min and washed. Biotin-huCGRPaSA was diluted to 2.0 μg/mL with 2% BSA and added into the plate at 100 μL/well, and the plate was incubated in the thermostat incubator at 37° C. for 60 min. The reference antibody (47-RM) was diluted to 2500 ng/ml with a diluent (2% BSA) and serially 4-fold diluted to 0.15 ng/mL, and the chimeric antibodies were diluted with a cell supernatant stock solution. All the chimeric antibody solutions and the reference antibody solution were added into plates at 80 μL/well, and the plates were incubated in a thermostat incubator at 37° C. for 60 min and washed. An HRP-conjugated mouse anti-human antibody IgG4 (manufacturer: Southern Biotech, Cat. No. 9200-05; Fc specificity) was diluted 5000-fold with 2% BSA and added into the plates at 100 μL/well, and the plates were incubated in the thermostat incubator at 37° C. for 60 min and washed. 0.1 mg/mL chromogenic reagent TMB was carefully added at 100 μL/well to avoid bubbles, and the system was incubated at 37° C. for 10 min away from light for chromogenic reaction. Finally, a 2 M hydrochloric acid solution was added at 100 μL/well to stop the reaction while avoiding bubbles, and the plates were read on a microplate reader within 10 min (the detection wavelength was 450 nm; the reference wavelength was 620 nm).

[3] = molecular target: T1, Biotin-huCGRPaSA; experiment: ELISA, purified antibody; relative to reference 47-RM-20190815
Description: Streptavidin was diluted to […] by using PBS (Hyclone) and added into a plate at 100 μL/well. The plate was incubated in a thermostat incubator at 37° C. for 90 min and then washed. 2% BSA was added to the plate at 200 μL/well, and the plate was incubated in the thermostat incubator at 37° C. for 90 min and washed. Biotin-huCGRPaSA was diluted to 2.0 μg/mL with 2% BSA and added into the plate at 100 μL/well, and the plate was incubated in the thermostat incubator at 37° C. for 60 min. The chimeric antibodies in Table 3 and reference antibody (47-RM-20190815) were diluted to 1000 ng/ml with a diluent (2% BSA) and serially 10-fold diluted to 1 ng/mL. All the chimeric antibody solutions and the reference antibody solution were added into plates at 100 μL/well, and the plates were incubated in a thermostat incubator at 37° C. for 60 min and washed. An HRP-conjugated mouse anti-human antibody IgG4 (manufacturer: Southern Biotech, Cat. No. 9200-05; Fc specificity) was diluted 5000-fold with 2% BSA and added into the plates at 100 μL/well, and the plates were incubated in the thermostat incubator at 37° C. for 60 min and washed. 0.1 mg/mL chromogenic reagent TMB was carefully added at 100 μL/well to avoid bubbles, and the system was incubated at 37° C. for 5 min away from light for chromogenic reaction. Finally, a 2 M hydrochloric acid solution was added at 100 μL/well to stop the reaction while avoiding bubbles, and the plates were read on a microplate reader within 10 min (the detection wavelength was 450 nm; the reference wavelength was 620 nm). EC₅₀ was fit by using a four-parameter logistic regression (4PL) model.

[4] = molecular target: CGRP antigen; experiment: cell-based or functional assay; remark: listed apart in the source

Binder | Relative binding activity (%) vs Ref(Teva) [1] [%] | OD value [2] [OD] | Relative activity (%) [3] [%] | Relative binding activity (%) vs Ref(Teva) [4] [%]
C125 (antibody, V domains shown, 2B8-HC1 + 2B8-LC2; chimeric, human constant regions) VH: EVQLQQSGPELVKPGASVKISCKASGYTFTDYNMHWVKQSHGKSLEWIGNIYPYNGGTVYNQKFNNKATLTVHTSSSTAYMDLRSLTSDDSAVYYCAREGLGGYWGQGTTLTVSS VL: DVVLTQSPTSLAVSLGQRATISCQASQNIDGNTYMNWYQQKPGQPPKVLIYSIFNLESGIPARFSGSGSGTHFTLTIHPVEEEDAATYYCQQSNDYPYTFGGGTKLEIK | 76.4 | 3.08 | 62.9 | –
C276 (antibody, V domains shown, 3E5-HC + 3H10-LC2; chimeric, human constant regions) VH: EVQLQQSGPELVKPGASVKISCKTSGYTFTDYNMHWVKQSHGKSLEWIGYISPYNGGTAYNQKFKFKSTLTVDTSSSTAYMELRSLTSEDSAVYYCAREGLGGYWGQGTTLTVSS VL: DIVLTQSPDSLAVSLGQRATISCKASQNIDYGGYSYMNWYQQKPGQPPKVLIYSVFNLESGIPARFSGSGSGTDFTLTIHPVEEEDAATYYCQQSNEAPYTFGGGTKLEIR | – | 3.01 | 84.1 | –
C258 (antibody, V domains shown, 3E5-HC + 1F5-LC1; chimeric, human constant regions) VH: EVQLQQSGPELVKPGASVKISCKTSGYTFTDYNMHWVKQSHGKSLEWIGYISPYNGGTAYNQKFKFKSTLTVDTSSSTAYMELRSLTSEDSAVYYCAREGLGGYWGQGTTLTVSS VL: DIVLTQSPASLAVSLGQRATISCKASQNIDFDGYAYMNWYQHKPGQPPRVLIYSVFNLESGIPARFSGSGSGTDFTLNIHPVEEEDAATYYCQQSHEVPYTFGGGTNLEIK | – | 3.12 | 99.8 | 117
C350 (antibody, V domains shown, 3H10-HC + 1F5-LC1; chimeric, human constant regions) VH: EVQLQQSGPELVQPGASVKISCKASGYTFTDYNMHWVKQSHGESLEWIGYIYPYNGHTVYNQKFRNKATMTVDSSSSTAYMDLRSLTSEDSAVYYCAKEGLGGYWGQGTTLTVSS VL: DIVLTQSPASLAVSLGQRATISCKASQNIDFDGYAYMNWYQHKPGQPPRVLIYSVFNLESGIPARFSGSGSGTDFTLNIHPVEEEDAATYYCQQSHEVPYTFGGGTNLEIK | – | 3 | 108 | –
C120 (antibody, V domains shown, 2B8-HC1 + 1F5-LC1; chimeric, human constant regions) VH: EVQLQQSGPELVKPGASVKISCKASGYTFTDYNMHWVKQSHGKSLEWIGNIYPYNGGTVYNQKFNNKATLTVHTSSSTAYMDLRSLTSDDSAVYYCAREGLGGYWGQGTTLTVSS VL: DIVLTQSPASLAVSLGQRATISCKASQNIDFDGYAYMNWYQHKPGQPPRVLIYSVFNLESGIPARFSGSGSGTDFTLNIHPVEEEDAATYYCQQSHEVPYTFGGGTNLEIK | – | 3.09 | 30.6 | 50.3
C263 (antibody, V domains shown, 3E5-HC + 2B8-LC2; chimeric, human constant regions) VH: EVQLQQSGPELVKPGASVKISCKTSGYTFTDYNMHWVKQSHGKSLEWIGYISPYNGGTAYNQKFKFKSTLTVDTSSSTAYMELRSLTSEDSAVYYCAREGLGGYWGQGTTLTVSS VL: DVVLTQSPTSLAVSLGQRATISCQASQNIDGNTYMNWYQQKPGQPPKVLIYSIFNLESGIPARFSGSGSGTHFTLTIHPVEEEDAATYYCQQSNDYPYTFGGGTKLEIK | – | 3.02 | 111 | –
C131 (antibody, V domains shown, 2B8-HC1 + 3E5-LC; chimeric, human constant regions) VH: EVQLQQSGPELVKPGASVKISCKASGYTFTDYNMHWVKQSHGKSLEWIGNIYPYNGGTVYNQKFNNKATLTVHTSSSTAYMDLRSLTSDDSAVYYCAREGLGGYWGQGTTLTVSS VL: DIVLTQSPASLAVSLGQRATISCKASQNIDYDGYTYLNWYQQKPGQPPKVLIYSIFNLESGIPARFSGSGSGTDFTLNIHPVEEEDAATYYCQQSNEVPYTFGGGTKLEIK | – | 3.02 | 116 | –
C138 (antibody, V domains shown, 2B8-HC1 + 3H10-LC2; chimeric, human constant regions) VH: EVQLQQSGPELVKPGASVKISCKASGYTFTDYNMHWVKQSHGKSLEWIGNIYPYNGGTVYNQKFNNKATLTVHTSSSTAYMDLRSLTSDDSAVYYCAREGLGGYWGQGTTLTVSS VL: DIVLTQSPDSLAVSLGQRATISCKASQNIDYGGYSYMNWYQQKPGQPPKVLIYSVFNLESGIPARFSGSGSGTDFTLTIHPVEEEDAATYYCQQSNEAPYTFGGGTKLEIR | – | 3.06 | 136 | –
C48 (antibody, V domains shown, 1B2-HC + 1A2-LC2; chimeric, human constant regions) VH: EVQLQQSGPEVVKPGASVRISCQASGYTFTDYNMHWVKQSHGKSLEWIGYIFPYNGVAVYNRKFRSKATLIIDKSSTTAYMELRSLTSEDSAVYYCAREGLGGYWGQGTTLTVSS VL: DIVLTQSPASLAVSLGQRATISCKASQNIDYDGYAYLNWYQQKPGQPPKVLIYSVFNLESGIPARFSGSGSGTDFTLNIHPVEEEDAATYYCQQSNEFPYTFGGGTKLEVK | 93 | 3.12 | 60.4 | –
C97 (antibody, V domains shown, 2A2-HC + 1F5-LC1; chimeric, human constant regions) VH: EVQLQQSGPELVKPGASVKISCKASGYTFTDYNMHWVKQSHGKSLEWIGYVYPYNGGSAYNQKFKSKATLTVDTSSSIAYMDLHSLTSEDSAVYYCAREGLGGYWGQGTTLAVSS VL: DIVLTQSPASLAVSLGQRATISCKASQNIDFDGYAYMNWYQHKPGQPPRVLIYSVFNLESGIPARFSGSGSGTDFTLNIHPVEEEDAATYYCQQSHEVPYTFGGGTNLEIK | 98.4 | 3.03 | 41.9 | –
C51 (antibody, V domains shown, 1B2-HC + 1F5-LC1; chimeric, human constant regions) VH: EVQLQQSGPEVVKPGASVRISCQASGYTFTDYNMHWVKQSHGKSLEWIGYIFPYNGVAVYNRKFRSKATLIIDKSSTTAYMELRSLTSEDSAVYYCAREGLGGYWGQGTTLTVSS VL: DIVLTQSPASLAVSLGQRATISCKASQNIDFDGYAYMNWYQHKPGQPPRVLIYSVFNLESGIPARFSGSGSGTDFTLNIHPVEEEDAATYYCQQSHEVPYTFGGGTNLEIK | – | 3.04 | 56 | –
C92 (antibody, V domains shown, 1F5-HC + 3H10-LC2; chimeric, human constant regions) VH: EVQLQQSGPELVKPGASVKISCKTSGYTFIDFNMHWVKQSHGKSLEWIGYIYPYNGDVVYNQNFTNKATLTVDSSSSTAYMELRRVTSEDSAIYYCAREGLGGYWGQGTTLTVSS VL: DIVLTQSPDSLAVSLGQRATISCKASQNIDYGGYSYMNWYQQKPGQPPKVLIYSVFNLESGIPARFSGSGSGTDFTLTIHPVEEEDAATYYCQQSNEAPYTFGGGTKLEIR | – | 3.09 | 68.5 | 108
C85 (antibody, V domains shown, 1F5-HC + 3E5-LC; chimeric, human constant regions) VH: EVQLQQSGPELVKPGASVKISCKTSGYTFIDFNMHWVKQSHGKSLEWIGYIYPYNGDVVYNQNFTNKATLTVDSSSSTAYMELRRVTSEDSAIYYCAREGLGGYWGQGTTLTVSS VL: DIVLTQSPASLAVSLGQRATISCKASQNIDYDGYTYLNWYQQKPGQPPKVLIYSIFNLESGIPARFSGSGSGTDFTLNIHPVEEEDAATYYCQQSNEVPYTFGGGTKLEIK | – | 3.11 | 56.7 | 111
C69 (antibody, V domains shown, 1B2-HC + 3H10-LC2; chimeric, human constant regions) VH: EVQLQQSGPEVVKPGASVRISCQASGYTFTDYNMHWVKQSHGKSLEWIGYIFPYNGVAVYNRKFRSKATLIIDKSSTTAYMELRSLTSEDSAVYYCAREGLGGYWGQGTTLTVSS VL: DIVLTQSPDSLAVSLGQRATISCKASQNIDYGGYSYMNWYQQKPGQPPKVLIYSVFNLESGIPARFSGSGSGTDFTLTIHPVEEEDAATYYCQQSNEAPYTFGGGTKLEIR | 42.2 | 3.07 | 221 | –
